Sequences and labels used below:
B1: Cytosolic arginine sensor for mTORC1 subunit 1 (Homo sapiens), Q8WTX7 (parent)
chain: MELHILEHRVRVLSVARPGLWLYTHPLIKLLFLPRRSRCKFFSLTETPEDYTLMVDEEGFKELPPSEFLQVAEATWLVLNVSSHSGAAVQAAGVTKIARSVIAPLAEHHVSVLMLSTYQTDFILVREQDLSVVIHTLAQEFDIYREVGGEPVPVTRDDSSNGFPRTQHGPSPTVHPIQSPQNRFCVLTLDPETLPAIATTLIDVLFYSHSTPKEAASSSPEPSSITFFAFSLIEGYISIVMDAETQKKFPSDLLLTSSSGELWRMVRIGGQPLGFDECGIVAQIAGPLAAADISAYYISTFNFDHALVPEDGIGSVIEVLQRRQEGLAS
partner: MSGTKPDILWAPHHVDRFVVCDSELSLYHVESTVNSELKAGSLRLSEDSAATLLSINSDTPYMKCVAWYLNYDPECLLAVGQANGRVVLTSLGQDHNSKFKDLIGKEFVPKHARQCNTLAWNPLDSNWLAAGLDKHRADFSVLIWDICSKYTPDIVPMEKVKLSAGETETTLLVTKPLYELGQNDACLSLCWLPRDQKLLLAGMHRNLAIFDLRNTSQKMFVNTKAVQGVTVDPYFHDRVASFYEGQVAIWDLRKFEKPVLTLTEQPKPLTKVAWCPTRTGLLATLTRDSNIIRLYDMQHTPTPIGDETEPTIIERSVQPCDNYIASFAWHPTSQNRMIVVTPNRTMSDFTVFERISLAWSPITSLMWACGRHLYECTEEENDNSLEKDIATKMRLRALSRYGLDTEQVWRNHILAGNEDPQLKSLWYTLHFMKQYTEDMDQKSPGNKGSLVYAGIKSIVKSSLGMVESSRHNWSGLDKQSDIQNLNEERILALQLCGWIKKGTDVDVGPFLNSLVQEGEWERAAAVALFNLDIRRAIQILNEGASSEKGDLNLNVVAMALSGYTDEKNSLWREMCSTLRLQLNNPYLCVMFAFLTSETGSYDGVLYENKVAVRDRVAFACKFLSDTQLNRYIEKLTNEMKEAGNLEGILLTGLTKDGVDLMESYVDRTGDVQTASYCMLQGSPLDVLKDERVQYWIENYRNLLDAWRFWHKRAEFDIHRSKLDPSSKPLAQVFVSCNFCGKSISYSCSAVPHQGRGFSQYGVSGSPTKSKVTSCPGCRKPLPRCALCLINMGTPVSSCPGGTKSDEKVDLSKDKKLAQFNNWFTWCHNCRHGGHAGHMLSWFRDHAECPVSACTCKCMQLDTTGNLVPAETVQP

The variants in this assay derive from B1. As to conditions: with mios_human MIOS.
For the variant I280A, the “effect of a mutation on the interaction” value is recorded as “disrupting interaction strength”.

For the origin of these results see IntAct's records for PubMed 26972053.
